# Measured values reported in the supplement of paper PMC10724198.
# ± gives the standard deviation of the averaged measurements.
# Test system: Saccharomyces cerevisiae
# Test: protein stability index of tFT-peptide fusion (C-terminal peptide) (PSI (0-1 scale)); higher = more stable (slower turnover)
# Conditions: genetic background: wild type; temperature: 30 C
# Method: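 Multiplexed protein stability (MPS) profiling in S. cerevisiae. Random 12-aa peptides (tFT-X12 library) are fused to the C-terminus of a sfGFP-mCherry tandem fluorescent timer, after mCherry and a GGGS linker. Cells are FACS-sorted into 8 mCherry/sfGFP bins and deep-sequenced. The protein stability index (PSI) is the read-weighted bin average, scaled from 0 (unstable) to 1 (stable). Only peptides with >10 reads are reported; cells were grown at 30 °C in SC-His with glucose.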
# 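Note: PSI is a weighted mean of sequencing reads over stability bins, variants kept only with over 10 reads, mCherry proximal and sfGFP distal, peptide attached via GGGS linker.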
row,Sequence,protein stability index
1,EVAVELIGAPGL,0.699 ± 0.1
2,EVDRRRSVITLP,0.668 ± 0.033
3,EVEGGLSFSARG,0.706 ± 0.074
4,EVEINGRLVGKM,0.646 ± 0.097
5,EVKDDSKVVVYV,0.666 ± 0.022
6,EVKERGRGCREG,0.659 ± 0.03
7,EVRRGVGGAWEG,0.648 ± 0.011
8,EVSGGNRYWCGV,0.719 ± 0.022
9,EVSHLGLVCGHL,0.653 ± 0.081
10,EVSSGGQRVGRS,0.763 ± 0.018
11,EVWGSVETSCAS,0.739 ± 0.17
12,EWGRSGVRCRLG,0.571 ± 0.052
13,EWRWPTELNRKG,0.75 ± 0.051
14,EYAVLLFPHHPG,0.623 ± 0.041
15,EYGSWIRTASRV,0.726 ± 0.016
16,EYKKKKTKANDT,0.6944 ± 0.0015
17,EYRPPVPPPFPP,0.579 ± 0.033
18,FAAGIMWQSGLK,0.657 ± 0.019
19,FAEWVRFWPGLV,0.6682 ± 0.0064
20,FAHRVVCFCVFS,0.505 ± 0.038
21,FALAVPLDPWSS,0.737 ± 0.065
22,FAQRRGPAALNI,0.70492 ± 0.00052
23,FARELGNLNVEK,0.761 ± 0.056
24,FASPPPLPLPPH,0.694 ± 0.02
25,FCFHPLTGKLSG,0.6536 ± 0.0029
26,FCFRFISCPLHF,0.549 ± 0.047

row,Sequence,protein stability index
1,FCGLVIRFSEKV,0.653 ± 0.017
2,FCLFTYIPSSCL,0.664 ± 0.035
3,FCLGSFMFEGGR,0.723 ± 0.032
4,FCPPLSFPPPLS,0.718 ± 0.13
5,FCRCNYLYRIPK,0.6615 ± 0.0026
6,FCRVCLAFLSGL,0.781 ± 0.22
7,FCRYSRAWKDFV,0.737 ± 0.087
8,FCSLLLFRFVVL,0.517 ± 0.015
9,FCSPLPSSPPLP,0.658 ± 0.028
10,FCSRVGFVFLRL,0.489 ± 0.024
11,FCSSVSFPPAPL,0.642 ± 0.035
12,FDFFLPFLCSSL,0.827 ± 0.2
13,FDMYACCQRGAV,0.6639 ± 0.0027
14,FDRWEDCKGTRD,0.71 ± 0.013
15,FFCLVPLALPRF,0.649 ± 0.019
16,FFFGPPPCRSFF,0.731 ± 0.019
17,FFFPSPPPPSLV,0.749 ± 0.05
18,FFLRSPLFPCSH,0.72173 ± 0.00052
19,FFMWDLLFLSLD,0.669 ± 0.011
20,FFPATVGPFSFP,0.731 ± 0.015
21,FFPQPTPVSISR,0.8264 ± 0.0039
22,FFPSSPFLPPPR,0.657 ± 0.1
23,FFSFWVGATTIE,0.70044 ± 0.00014
24,FFVAFGSWFGFL,0.677 ± 0.099
25,FFVRGCLCLSDR,0.693 ± 0.024
26,FFVSHLLRFAIK,0.555 ± 0.0089

row,Sequence,protein stability index
1,FGAIREVFYIRL,0.662 ± 0.018
2,FGCGVADLERCL,0.686 ± 0.013
3,FGDLAVFFAFLL,0.564 ± 0.0069
4,FGESGSGSKRCG,0.701 ± 0.12
5,FGFLSVSPLLSV,0.642 ± 0.016
6,FGGEGGEEMAGG,0.789 ± 0.034
7,FGGGLGGGVVLV,0.69158 ± 0.00021
8,FGRFCYELLCGT,0.541 ± 0.056
9,FGSDQFVCRLWS,0.729 ± 0.048
10,FGVALGLRACAG,0.668 ± 0.059
11,FGVVGAVGWRLR,0.638 ± 0.03
12,FGYSGCVAKTGL,0.658 ± 0.049
13,FHSSDLCGPVTS,0.67 ± 0.025
14,FIKSRRLCCVNL,0.663 ± 0.032
15,FILLLPSPPPAP,0.618 ± 0.034
16,FITRATRESRIG,0.694 ± 0.0073
17,FKKMTNVIKGNN,0.689 ± 0.016
18,FKLSRTDSWMFT,0.712 ± 0.01
19,FKPKAGCSNFAK,0.696 ± 0.025
20,FKSCSLHCSRCS,0.682 ± 0.12
21,FKWSGGGRGVGP,0.679 ± 0.08
22,FLFFLLLYVFFC,0.498 ± 0.048
23,FLGAVVGVGLVG,0.658 ± 0.053
24,FLGECSLLSGFL,0.694 ± 0.033
25,FLGGSRVGRGDG,0.6943 ± 0.0053
26,FLGLFHTVKKWQ,0.684 ± 0.06

row,Sequence,protein stability index
1,FLGLSYYRLPVG,0.606 ± 0.046
2,FLIFSLSFCVLS,0.6713 ± 0.0031
3,FLLSLLAFRFFL,0.478 ± 0.04
4,FLLTVFPPLFFP,0.704 ± 0.011
5,FLLVHIFSLFCL,0.547 ± 0.013
6,FLLYGWTRPSCQ,0.735 ± 0.062
7,FLPRRLCVRWRG,0.684 ± 0.065
8,FLPWPSYPTPGP,0.784 ± 0.018
9,FLQSRGWVCNHL,0.655 ± 0.038
10,FLSALLALPASP,0.698 ± 0.0064
11,FLSARVSSSLLL,0.639 ± 0.035
12,FLSGVGSHLTGP,0.653 ± 0.019
13,FLSLAAPQSGGA,0.693 ± 0.027
14,FLSRCSVRPVTY,0.668 ± 0.021
15,FLSSFVSNHVFW,0.7914 ± 0.0032
16,FLTSPFIITRMP,0.593 ± 0.071
17,FLVPTYISPFSF,0.65 ± 0.027
18,FLWLRLLEAFWF,0.603 ± 0.032
19,FMLCCFPCWCVL,0.6127 ± 0.0041
20,FMRGQCWLRGCE,0.672 ± 0.016
21,FNGANEDCDLGV,0.665 ± 0.12
22,FNNTSFALRSQA,0.741 ± 0.029
23,FPAMVRVDTCGV,0.673 ± 0.059
24,FPAPSPPFRLPP,0.748 ± 0.025
25,FPAYRPARLTPA,0.606 ± 0.033
26,FPFVVVISSSGE,0.693 ± 0.23

row,Sequence,protein stability index
1,FPGFHPIFPPPL,0.664 ± 0.093
2,FPHSPPFIPHPP,0.647 ± 0.021
3,FPLDNIALQSFP,0.774 ± 0.099
4,FPLPPFPLTPPP,0.64 ± 0.054
5,FPLQSFCYFVPI,0.597 ± 0.0015
6,FPPRPLPFCSPA,0.643 ± 0.0046
7,FPPVPLVTDTFT,0.675 ± 0.034
8,FPPVVSSLPPPS,0.686 ± 0.14
9,FPRGPLPPAPSP,0.6556 ± 0.006
10,FPRPHPTPLPPG,0.689 ± 0.013
11,FPRSCETPARAL,0.6607 ± 0.0043
12,FPRSMPSPPSSE,0.623 ± 0.035
13,FPRSSGRTVNCV,0.648 ± 0.0084
14,FPSASPPFLPTP,0.705 ± 0.037
15,FPSPPHALPTFP,0.669 ± 0.071
16,FPSSRGLGGTMG,0.658 ± 0.017
17,FPSTPRPPLPPP,0.668 ± 0.014
18,FQPTYCVHKQNK,0.722 ± 0.024
19,FRCFDAQRLGGV,0.6858 ± 0.002
20,FRDPTVLCCLHI,0.515 ± 0.055
21,FRMNEVSWDVVS,0.675 ± 0.032
22,FRRGGVERGVEG,0.723 ± 0.026
23,FRSFGYSGSMLA,0.6902 ± 0.0013
24,FRSFLSKLNGLF,0.636 ± 0.03
25,FRSGRLSPPAPS,0.692 ± 0.0028
26,FRSRGPVGMGAS,0.686 ± 0.1

row,Sequence,protein stability index
1,FRYICYSRPVMR,0.684 ± 0.14
2,FSCEVSFAGLIV,0.6 ± 0.012
3,FSFFPLLARYFF,0.499 ± 0.0052
4,FSGLELRVGCGA,0.732 ± 0.086
5,FSGRRGCFSSYI,0.653 ± 0.037
6,FSLLLSFPCSYL,0.601 ± 0.021
7,FSLLSFLLPLFP,0.787 ± 0.12
8,FSNSSASPPSLS,0.664 ± 0.068
9,FSPDSDFTRCAP,0.701 ± 0.002
10,FSPPPLPAASPS,0.664 ± 0.071
11,FSPYLYNIRTSL,0.612 ± 0.024
12,FSRAFLDRVIVS,0.713 ± 0.04
13,FSRRQLLCLPHP,0.677 ± 0.0083
14,FSRSDREIFPRN,0.585 ± 0.07
15,FSRSGIRLLGVA,0.59 ± 0.021
16,FSSARSPLLSRL,0.705 ± 0.041
17,FSSFCFFLPPLN,0.666 ± 0.034
18,FSSFVVVGCWPR,0.625 ± 0.027
19,FSSPLSSPSPLY,0.6834 ± 0.0059
20,FSSSPGRSFRTV,0.726 ± 0.0091
21,FSVFFSPQRGCM,0.759 ± 0.1
22,FTERVVEKFVLY,0.633 ± 0.01
23,FTPDFTPKGSLS,0.791 ± 0.088
24,FTPSSPPLPLLP,0.655 ± 0.11
25,FVASEFEVRLWR,0.769 ± 0.01
